# Results: patent publication US11702475B2, “Cysteine engineered fibronectin type III domain binding molecules” (Janssen Biotech, Inc., priority 2013, dated 2023)
# Test: Analytical size exclusion chromatography (percent monomer)
# Type: physicochemical
# Conditions: NEM-conjugated cysteine variants; SEC, Abs280 monomer region 5.5-6 minutes vs oligomer region 4-5.3 minutes
# Experimental: Size exclusion chromatography was used to determine the aggregation state of the FN3 domains binding EGFR. Aliquots (10 μL) of each purified FN3 domain were injected onto a Superdex 75 5/150 column (GE Healthcare) at a flow rate of 0.3 mL/min in a mobile phase of PBS pH 7.4. Elution from the column was monitored by absorbance at 280 nm.
# The percent monomer for each protein was determined by integrating the Abs280 signal and comparing the peak in the monomer region (5.5-6 minutes) to the peaks in the oligomer region (4-5.3 minutes).
row,Molecule,Percent monomer
1,"L7C (conjugate, left off: small tags and cut ends) LPAPKNCVVSEVTEDSARLSWDDPWAFYESFLIQYQESEKVGEAIVLTVPGSERSYDLTGLKPGTEYTVSIYGVHNVYKDTNMRGLPLSAIFTT",93%
2,"F31C (conjugate, left off: small tags and cut ends) LPAPKNLVVSEVTEDSARLSWDDPWAFYESCLIQYQESEKVGEAIVLTVPGSERSYDLTGLKPGTEYTVSIYGVHNVYKDTNMRGLPLSAIFTT",57%
3,"A26C (conjugate, left off: small tags and cut ends) LPAPKNLVVSEVTEDSARLSWDDPWCFYESFLIQYQESEKVGEAIVLTVPGSERSYDLTGLKPGTEYTVSIYGVHNVYKDTNMRGLPLSAIFTT",95%
4,"S55C (conjugate, left off: small tags and cut ends) LPAPKNLVVSEVTEDSARLSWDDPWAFYESFLIQYQESEKVGEAIVLTVPGSERCYDLTGLKPGTEYTVSIYGVHNVYKDTNMRGLPLSAIFTT",100%
5,"Y28C (conjugate, left off: small tags and cut ends) LPAPKNLVVSEVTEDSARLSWDDPWAFCESFLIQYQESEKVGEAIVLTVPGSERSYDLTGLKPGTEYTVSIYGVHNVYKDTNMRGLPLSAIFTT",92%
6,"E43C (conjugate, left off: small tags and cut ends) LPAPKNLVVSEVTEDSARLSWDDPWAFYESFLIQYQESEKVGCAIVLTVPGSERSYDLTGLKPGTEYTVSIYGVHNVYKDTNMRGLPLSAIFTT",100%
7,"T81C (conjugate, left off: small tags and cut ends) LPAPKNLVVSEVTEDSARLSWDDPWAFYESFLIQYQESEKVGEAIVLTVPGSERSYDLTGLKPGTEYTVSIYGVHNVYKDCNMRGLPLSAIFTT",86%
8,"D22C (conjugate, left off: small tags and cut ends) LPAPKNLVVSEVTEDSARLSWCDPWAFYESFLIQYQESEKVGEAIVLTVPGSERSYDLTGLKPGTEYTVSIYGVHNVYKDTNMRGLPLSAIFTT",85%
9,"V77C (conjugate, left off: small tags and cut ends) LPAPKNLVVSEVTEDSARLSWDDPWAFYESFLIQYQESEKVGEAIVLTVPGSERSYDLTGLKPGTEYTVSIYGVHNCYKDTNMRGLPLSAIFTT",92%
10,"D80C (conjugate, left off: small tags and cut ends) LPAPKNLVVSEVTEDSARLSWDDPWAFYESFLIQYQESEKVGEAIVLTVPGSERSYDLTGLKPGTEYTVSIYGVHNVYKCTNMRGLPLSAIFTT",79%
11,"W25C (conjugate, left off: small tags and cut ends) LPAPKNLVVSEVTEDSARLSWDDPCAFYESFLIQYQESEKVGEAIVLTVPGSERSYDLTGLKPGTEYTVSIYGVHNVYKDTNMRGLPLSAIFTT",76%
12,"Y78C (conjugate, left off: small tags and cut ends) LPAPKNLVVSEVTEDSARLSWDDPWAFYESFLIQYQESEKVGEAIVLTVPGSERSYDLTGLKPGTEYTVSIYGVHNVCKDTNMRGLPLSAIFTT",90%
13,"G73C (conjugate, left off: small tags and cut ends) LPAPKNLVVSEVTEDSARLSWDDPWAFYESFLIQYQESEKVGEAIVLTVPGSERSYDLTGLKPGTEYTVSIYCVHNVYKDTNMRGLPLSAIFTT",66%
14,"P2C (conjugate, left off: small tags and cut ends) LCAPKNLVVSEVTEDSARLSWDDPWAFYESFLIQYQESEKVGEAIVLTVPGSERSYDLTGLKPGTEYTVSIYGVHNVYKDTNMRGLPLSAIFTT",86%
15,"P24C (conjugate, left off: small tags and cut ends) LPAPKNLVVSEVTEDSARLSWDDCWAFYESFLIQYQESEKVGEAIVLTVPGSERSYDLTGLKPGTEYTVSIYGVHNVYKDTNMRGLPLSAIFTT",88%
16,"K79C (conjugate, left off: small tags and cut ends) LPAPKNLVVSEVTEDSARLSWDDPWAFYESFLIQYQESEKVGEAIVLTVPGSERSYDLTGLKPGTEYTVSIYGVHNVYCDTNMRGLPLSAIFTT",100%
17,"F27C (conjugate, left off: small tags and cut ends) LPAPKNLVVSEVTEDSARLSWDDPWACYESFLIQYQESEKVGEAIVLTVPGSERSYDLTGLKPGTEYTVSIYGVHNVYKDTNMRGLPLSAIFTT",97%
18,"H75C (conjugate, left off: small tags and cut ends) LPAPKNLVVSEVTEDSARLSWDDPWAFYESFLIQYQESEKVGEAIVLTVPGSERSYDLTGLKPGTEYTVSIYGVCNVYKDTNMRGLPLSAIFTT",100%
19,"D23C (conjugate, left off: small tags and cut ends) LPAPKNLVVSEVTEDSARLSWDCPWAFYESFLIQYQESEKVGEAIVLTVPGSERSYDLTGLKPGTEYTVSIYGVHNVYKDTNMRGLPLSAIFTT",100%
20,"V46C (conjugate, left off: small tags and cut ends) LPAPKNLVVSEVTEDSARLSWDDPWAFYESFLIQYQESEKVGEAICLTVPGSERSYDLTGLKPGTEYTVSIYGVHNVYKDTNMRGLPLSAIFTT",100%
21,"A3C (conjugate, left off: small tags and cut ends) LPCPKNLVVSEVTEDSARLSWDDPWAFYESFLIQYQESEKVGEAIVLTVPGSERSYDLTGLKPGTEYTVSIYGVHNVYKDTNMRGLPLSAIFTT",100%
22,"S52C (conjugate, left off: small tags and cut ends) LPAPKNLVVSEVTEDSARLSWDDPWAFYESFLIQYQESEKVGEAIVLTVPGCERSYDLTGLKPGTEYTVSIYGVHNVYKDTNMRGLPLSAIFTT",100%
23,"N76C (conjugate, left off: small tags and cut ends) LPAPKNLVVSEVTEDSARLSWDDPWAFYESFLIQYQESEKVGEAIVLTVPGSERSYDLTGLKPGTEYTVSIYGVHCVYKDTNMRGLPLSAIFTT",94%
